Test results from patent publication US20180355034A1 (published 2018).

What was measured:
[1] = target: Recombinant human FcRn (FcRn alpha and beta2-microglobulin) (human, UniProt P55899 24-290; P61769 21-119); assay: SPR; produced in HEK
[2] = target: Recombinant human CD16aV (V polymorphism at position 158 of CD16) (human, UniProt P08637 17-208); assay: SPR; produced in HEK
Recombinant human CD16aV (V polymorphism at position 158 of CD16), sequence (P08637 17-208 F176V): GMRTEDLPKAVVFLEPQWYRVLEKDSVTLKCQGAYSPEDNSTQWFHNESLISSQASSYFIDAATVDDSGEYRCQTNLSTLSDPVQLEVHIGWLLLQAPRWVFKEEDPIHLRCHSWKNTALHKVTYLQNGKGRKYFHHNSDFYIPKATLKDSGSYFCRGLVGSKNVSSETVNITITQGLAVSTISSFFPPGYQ

Row | Binder | Kd [1] | Kd [2]
1 | T5A-74M (Y296W/N315D/A330V/N361D/A378V/N434Y) Fc fragment (other) DKTHTCPPCPAPELLGGPSVFLFPPKPKDTLMISRTPEVTCVVVDVSHEDPEVKFNWYVDGVEVHNAKTKPREEQWNSTYRVVSVLTVLHQDWLDGKEYKCKVSNKALPVPIEKTISKAKGQPREPQVYTLPPSRDELTKDQVSLTCLVKGFYPSDIVVEWESNGQPENNYKTTPPVLDSDGSFFLYSKLTVDKSRWQQGNVFSCSVMHEALHYHYTQKSLSLSPGK | 27.3 nM | 308 nM
2 | T5A-74J (E258I/N315D/A330V/N361D/A378V/N434Y) Fc fragment (other) DKTHTCPPCPAPELLGGPSVFLFPPKPKDTLMISRTPIVTCVVVDVSHEDPEVKFNWYVDGVEVHNAKTKPREEQYNSTYRVVSVLTVLHQDWLDGKEYKCKVSNKALPVPIEKTISKAKGQPREPQVYTLPPSRDELTKDQVSLTCLVKGFYPSDIVVEWESNGQPENNYKTTPPVLDSDGSFFLYSKLTVDKSRWQQGNVFSCSVMHEALHYHYTQKSLSLSPGK | 30.2 nM | 2820 nM
3 | T5A-74K (K290Y/N315D/A330V/N361D/A378V/N434Y) Fc fragment (other) DKTHTCPPCPAPELLGGPSVFLFPPKPKDTLMISRTPEVTCVVVDVSHEDPEVKFNWYVDGVEVHNAKTYPREEQYNSTYRVVSVLTVLHQDWLDGKEYKCKVSNKALPVPIEKTISKAKGQPREPQVYTLPPSRDELTKDQVSLTCLVKGFYPSDIVVEWESNGQPENNYKTTPPVLDSDGSFFLYSKLTVDKSRWQQGNVFSCSVMHEALHYHYTQKSLSLSPGK | 16.6 nM | 3180 nM
4 | T5A-74I (T260A/N315D/A330V/N361D/A378V/N434Y) Fc fragment (other) DKTHTCPPCPAPELLGGPSVFLFPPKPKDTLMISRTPEVACVVVDVSHEDPEVKFNWYVDGVEVHNAKTKPREEQYNSTYRVVSVLTVLHQDWLDGKEYKCKVSNKALPVPIEKTISKAKGQPREPQVYTLPPSRDELTKDQVSLTCLVKGFYPSDIVVEWESNGQPENNYKTTPPVLDSDGSFFLYSKLTVDKSRWQQGNVFSCSVMHEALHYHYTQKSLSLSPGK | 32.5 nM | 3510 nM
5 | T5A-74L (E294A/N315D/A330V/N361D/A378V/N434Y) Fc fragment (other) DKTHTCPPCPAPELLGGPSVFLFPPKPKDTLMISRTPEVTCVVVDVSHEDPEVKFNWYVDGVEVHNAKTKPREAQYNSTYRVVSVLTVLHQDWLDGKEYKCKVSNKALPVPIEKTISKAKGQPREPQVYTLPPSRDELTKDQVSLTCLVKGFYPSDIVVEWESNGQPENNYKTTPPVLDSDGSFFLYSKLTVDKSRWQQGNVFSCSVMHEALHYHYTQKSLSLSPGK | 37.9 nM | 4400 nM

Further binders by falling Kd [2], results first:

Row | Kd [1] | Kd [2] | Binder
6 |  | 1840 nM | J3B-118A (A378V/P396L/N421T) Fc fragment (other) DKTHTCPPCPAPELLGGPSVFLFPPKPKDTLMISRTPEVTCVVVDVSHEDPEVKFNWYVDGVEVHNAKTKPREEQYNSTYRVVSVLTVLHQDWLNGKEYKCKVSNKALPAPIEKTISKAKGQPREPQVYTLPPSRDELTKNQVSLTCLVKGFYPSDIVVEWESNGQPENNYKTTPLVLDSDGSFFLYSKLTVDKSRWQQGTVFSCSVMHEALHNHYTQKSLSLSPGK
7 | 231 nM | 1210 nM | A3A-105D (G316D/K326E/A378V) Fc fragment (other) DKTHTCPPCPAPELLGGPSVFLFPPKPKDTLMISRTPEVTCVVVDVSHEDPEVKFNWYVDGVEVHNAKTKPREEQYNSTYRVVSVLTVLHQDWLNDKEYKCKVSNEALPAPIEKTISKAKGQPREPQVYTLPPSRDELTKNQVSLTCLVKGFYPSDIVVEWESNGQPENNYKTTPPVLDSDGSFFLYSKLTVDKSRWQQGNVFSCSVMHEALHNHYTQKSLSLSPGK
8 | 11.7 nM | 228 nM | A3A-184A (K334N/P352S/A378V/V397M) Fc fragment (other) DKTHTCPPCPAPELLGGPSVFLFPPKPKDTLMISRTPEVTCVVVDVSHEDPEVKFNWYVDGVEVHNAKTKPREEQYNSTYRVVSVLTVLHQDWLNGKEYKCKVSNKALPAPIENTISKAKGQPREPQVYTLSPSRDELTKNQVSLTCLVKGFYPSDIVVEWESNGQPENNYKTTPPMLDSDGSFFLYSKLTVDKSRWQQGNVFSCSVMHEALHNHYTQKSLSLSPGK
